Reference: the supplement of paper PMC10724198
± gives the standard deviation of the averaged measurements.

tested on: Saccharomyces cerevisiae; experiment: protein stability index of tFT-peptide fusion (C-terminal peptide) (PSI (0-1 scale)); higher = more stable (slower turnover); details: genetic background: wild type; temperature: 37 C
Description: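 MPS profiling in S. cerevisiae of the tFT-X12 degron library: putative degron peptides plus stable controls, 12 aa, fused to the C-terminus of a sfGFP-mCherry timer. Cells are FACS-sorted into 8 mCherry/sfGFP bins and deep-sequenced. PSI runs from 0 (unstable) to 1 (stable). Backgrounds are wild type, das1Δ and doa10Δ at 30 °C, and wild type, das1Δ, cdc34-1 and cdc53-1 at 37 °C; 2-3 technical replicates each.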
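Note: PSI is a weighted mean of sequencing reads over stability bins, variants kept only with over 10 reads, mCherry proximal and sfGFP distal, peptide attached via GGGS linker.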

Compared with SCLVLDYCFSLV, SCYDYVILLQLS is lower in protein stability index: 0.613 ± 0.0062 for the first, 0.393 ± 0.0047 for the second.

First: SFFFTLLICFLF
Second: SFLLGCCWLVLC
The protein stability index of the first is higher: 0.244 ± 0.018 for the first, 0.127 ± 0.0028 for the second.

SFLLVWCLLPEI and SFLVFLYFFMVF are within error of each other in protein stability index: 0.451 ± 0.033 for the first, 0.446 ± 0.031 for the second.

First: SGWGGGTWVKMG
Second: SIQRKIRRMKEN
The protein stability index of the first is lower: 0.191 ± 0.018 for the first, 0.566 ± 0.0026 for the second.

SIVDLFRLRSLS and SLALLFSFLLFL are within error of each other in protein stability index: 0.519 ± 0.0074 for the first, 0.54 ± 0.042 for the second.

Compared with SLFPHIFFFFFA, SLICLSVGVLLR is lower in protein stability index: 0.384 ± 0.0099 for the first, 0.258 ± 0.021 for the second.

Compared with SLSSSFQFSSPS, SPIGIFCFILCR is lower in protein stability index: 0.7357 ± 0.0029 for the first, 0.157 ± 0.013 for the second.

Going from SPTQIPLWILAS to SRGRVLRLLLLV, the protein stability index falls from 0.12 ± 0.015 to 0.0678 ± 0.018.

Compared with SRRCGLFVFILF, SRSFFRRLLFCF is higher in protein stability index: 0.471 ± 0.006 for the first, 0.4821 ± 0.0037 for the second.

Compared with SSAPPTLHTRPS, SSRRVVLPLLVA is lower in protein stability index: 0.681 ± 0.0066 for the first, 0.131 ± 0.027 for the second.

Going from SVHKYGFIKEIN to SVVLCRFVLRIF, the protein stability index falls from 0.667 ± 0.016 to 0.136 ± 0.038.

First: SVVWIRFVGVRV
Second: SWFNLLSILPRD
The protein stability index of the first is lower: 0.499 ± 0.0089 for the first, 0.736 ± 0.045 for the second.

First: SWIKRYEITCIL
Second: SWWISKWVGLNC
The protein stability index of the first is lower: 0.492 ± 0.027 for the first, 0.6358 ± 0.0049 for the second.

SYMWLVEVLLFI and SYVFEFIVSVVF are within error of each other in protein stability index: 0.33 ± 0.0059 for the first, 0.341 ± 0.016 for the second.

Compared with SYVVVFVIFCVG, TDFICLLWLLHW is higher in protein stability index: 0.301 ± 0.0081 for the first, 0.535 ± 0.014 for the second.

First: TFRVRRQKNRNM
Second: TLFSFLLVFVFG
The protein stability index of the first is lower: 0.217 ± 0.012 for the first, 0.35 ± 0.0049 for the second.

Compared with TLLMVSMTVRPL, TPPLPTTPTLNS is higher in protein stability index: 0.398 ± 0.036 for the first, 0.684 ± 0.021 for the second.

Compared with TPRQYVVSLSLC, TRVVSPNVILMC is higher in protein stability index: 0.227 ± 0.0063 for the first, 0.673 ± 0.009 for the second.

Going from TTSHFCVVLVSV to TVERKMYWQRWG, the protein stability index rises from 0.356 ± 0.013 to 0.4975 ± 0.0044.

Going from TVGVGWVWVGVL to TVIVCCHLEVVY, the protein stability index falls from 0.576 ± 0.015 to 0.0685 ± 0.023.

Compared with VAALLCWLHLYA, VAFVVALSLIFL is lower in protein stability index: 0.563 ± 0.0096 for the first, 0.43 ± 0.023 for the second.

Compared with VALSILCVFFFF, VARLGGRIGWEG is higher in protein stability index: 0.383 ± 0.0064 for the first, 0.7208 ± 0.0018 for the second.

Going from VCFCFLRFLSLL to VCFFSSSCFLLV, the protein stability index rises from 0.24 ± 0.019 to 0.567 ± 0.0069.

VCLVFVVRPCIR and VCLWAIHLSGCW are within error of each other in protein stability index: 0.599 ± 0.0089 for the first, 0.584 ± 0.014 for the second.

First: VCNYRKLIWKHH
Second: VCVLRWAVAPCR
The protein stability index of the first is lower: 0.13 ± 0.012 for the first, 0.399 ± 0.013 for the second.

Going from VCWCVVVLEFGL to VECPWFCLGVLA, the protein stability index rises from 0.267 ± 0.044 to 0.416 ± 0.0065.

Compared with VERKLMTIYIKI, VFAFVVFLHFEC is lower in protein stability index: 0.6076 ± 0.00061 for the first, 0.375 ± 0.066 for the second.

Going from VFFCLFWFFCSF to VFFVTSCWVFRG, the protein stability index falls from 0.492 ± 0.012 to 0.208 ± 0.029.

First: VFGFSLLTLLVL
Second: VFRRWGLIGVIV
The protein stability index of the first is higher: 0.467 ± 0.019 for the first, 0.353 ± 0.0088 for the second.

Going from VFSGGGFFLKVV to VFSVSVLFLFFH, the protein stability index falls from 0.504 ± 0.02 to 0.381 ± 0.019.

First: VFVLFCAFVRAL
Second: VFVLFLRAVACR
The protein stability index of the first is higher: 0.096736 ± 8.4e-05 for the first, 0.0342 ± 0.015 for the second.

Compared with VFVMVLCALFYF, VFYRPFFVLFFV is lower in protein stability index: 0.319 ± 0.015 for the first, 0.152 ± 0.0038 for the second.

VGDVVWFGVGAG and VGEQEVVGIGGV are within error of each other in protein stability index: 0.7438 ± 0.0022 for the first, 0.719 ± 0.03 for the second.

Compared with VGGGCVVVVRWG, VGLWCWSFVLVW is lower in protein stability index: 0.594 ± 0.0083 for the first, 0.153 ± 0.0027 for the second.

Going from VGRVIVIVVAGV to VGVCGSSGRVGG, the protein stability index rises from 0.423 ± 0.022 to 0.717 ± 0.024.

First: VGVIGWGGLGVG
Second: VHGWRPLLFHTR
The protein stability index of the first is lower: 0.542 ± 0.023 for the first, 0.6989 ± 0.0063 for the second.

First: VHTAIFTSWRRL
Second: VIGLLSYFLVYL
The protein stability index of the first is higher: 0.685 ± 0.02 for the first, 0.581 ± 0.03 for the second.

First: VIRSIVSAYMIC
Second: VISGFVLVFRVR
The protein stability index of the first is lower: 0.334 ± 0.037 for the first, 0.566 ± 0.035 for the second.

Compared with VKGYISLLLVLI, VLAARVVLLRCR is lower in protein stability index: 0.365 ± 0.011 for the first, 0.3113 ± 0.001 for the second.

tested on: Saccharomyces cerevisiae; experiment: as above; details: genetic background: wild type; temperature: 30 C

Going from SCLVLDYCFSLV to SCYDYVILLQLS, the protein stability index falls from 0.442 ± 0.016 to 0.304 ± 0.026.

Going from SFFFTLLICFLF to SFLLGCCWLVLC, the protein stability index falls from 0.253 ± 0.011 to 0.155 ± 0.0099.

Compared with SFLLVWCLLPEI, SFLVFLYFFMVF is lower in protein stability index: 0.415 ± 0.0064 for the first, 0.379 ± 0.013 for the second.

Going from SGWGGGTWVKMG to SIQRKIRRMKEN, the protein stability index rises from 0.3093 ± 0.0025 to 0.4687 ± 0.0016.

SIVDLFRLRSLS and SLALLFSFLLFL are within error of each other in protein stability index: 0.374 ± 0.12 for the first, 0.438 ± 0.013 for the second.

Compared with SLFPHIFFFFFA, SLICLSVGVLLR is lower in protein stability index: 0.49 ± 0.013 for the first, 0.292 ± 0.0045 for the second.

Compared with SLSSSFQFSSPS, SPIGIFCFILCR is lower in protein stability index: 0.726 ± 0.094 for the first, 0.187 ± 0.049 for the second.

Compared with SPTQIPLWILAS, SRGRVLRLLLLV is lower in protein stability index: 0.186 ± 0.015 for the first, 0.124 ± 0.0028 for the second.

SRRCGLFVFILF and SRSFFRRLLFCF are within error of each other in protein stability index: 0.392 ± 0.03 for the first, 0.396 ± 0.016 for the second.

First: SSAPPTLHTRPS
Second: SSRRVVLPLLVA
The protein stability index of the first is higher: 0.539 ± 0.059 for the first, 0.202 ± 0.027 for the second.

Compared with SVHKYGFIKEIN, SVVLCRFVLRIF is lower in protein stability index: 0.531 ± 0.047 for the first, 0.128 ± 0.018 for the second.

Going from SVVWIRFVGVRV to SWFNLLSILPRD, the protein stability index rises from 0.418 ± 0.0043 to 0.7305 ± 0.0018.

SWIKRYEITCIL and SWWISKWVGLNC are within error of each other in protein stability index: 0.478 ± 0.015 for the first, 0.52 ± 0.034 for the second.

Compared with SYMWLVEVLLFI, SYVFEFIVSVVF is higher in protein stability index: 0.264 ± 0.038 for the first, 0.315 ± 0.0044 for the second.

First: SYVVVFVIFCVG
Second: TDFICLLWLLHW
The protein stability index of the first is lower: 0.224 ± 0.099 for the first, 0.565 ± 0.12 for the second.

Going from TFRVRRQKNRNM to TLFSFLLVFVFG, the protein stability index rises from 0.236 ± 0.012 to 0.411 ± 0.017.

First: TLLMVSMTVRPL
Second: TPPLPTTPTLNS
The protein stability index of the first is lower: 0.38 ± 0.0051 for the first, 0.732 ± 0.025 for the second.

First: TPRQYVVSLSLC
Second: TRVVSPNVILMC
The protein stability index of the first is lower: 0.19 ± 0.067 for the first, 0.505 ± 0.017 for the second.

First: TTSHFCVVLVSV
Second: TVERKMYWQRWG
The protein stability index of the first is lower: 0.32 ± 0.016 for the first, 0.391 ± 0.045 for the second.

Compared with TVGVGWVWVGVL, TVIVCCHLEVVY is lower in protein stability index: 0.467 ± 0.015 for the first, 0.0135 ± 0.0057 for the second.

Going from VAALLCWLHLYA to VAFVVALSLIFL, the protein stability index falls from 0.498 ± 0.011 to 0.386 ± 0.0059.

Compared with VALSILCVFFFF, VARLGGRIGWEG is higher in protein stability index: 0.309 ± 0.055 for the first, 0.548 ± 0.17 for the second.

Compared with VCFCFLRFLSLL, VCFFSSSCFLLV is higher in protein stability index: 0.262 ± 0.016 for the first, 0.47 ± 0.035 for the second.

VCLVFVVRPCIR and VCLWAIHLSGCW are within error of each other in protein stability index: 0.4904 ± 0.0027 for the first, 0.475 ± 0.035 for the second.

First: VCNYRKLIWKHH
Second: VCVLRWAVAPCR
The protein stability index of the first is lower: 0.181 ± 0.023 for the first, 0.356 ± 0.027 for the second.

First: VCWCVVVLEFGL
Second: VECPWFCLGVLA
The protein stability index of the first is lower: 0.313 ± 0.013 for the first, 0.3848 ± 0.0018 for the second.

First: VERKLMTIYIKI
Second: VFAFVVFLHFEC
The protein stability index of the first is higher: 0.493 ± 0.005 for the first, 0.31 ± 0.0057 for the second.

Compared with VFFCLFWFFCSF, VFFVTSCWVFRG is lower in protein stability index: 0.51 ± 0.12 for the first, 0.1794 ± 0.0015 for the second.

Compared with VFGFSLLTLLVL, VFRRWGLIGVIV is lower in protein stability index: 0.439 ± 0.022 for the first, 0.378 ± 0.0068 for the second.

VFSGGGFFLKVV and VFSVSVLFLFFH are the same in protein stability index: 0.3766 ± 0.0029 for the first, 0.377 ± 0.032 for the second.

First: VFVLFCAFVRAL
Second: VFVLFLRAVACR
The protein stability index of the first is higher: 0.2111 ± 0.00022 for the first, 0.0236 ± 0.013 for the second.

Going from VFVMVLCALFYF to VFYRPFFVLFFV, the protein stability index falls from 0.279 ± 0.022 to 0.114 ± 0.0065.

Compared with VGDVVWFGVGAG, VGEQEVVGIGGV is lower in protein stability index: 0.761 ± 0.023 for the first, 0.695 ± 0.018 for the second.

Going from VGGGCVVVVRWG to VGLWCWSFVLVW, the protein stability index falls from 0.52 ± 0.035 to 0.156 ± 0.038.

First: VGRVIVIVVAGV
Second: VGVCGSSGRVGG
The protein stability index of the first is lower: 0.375 ± 0.033 for the first, 0.7 ± 0.025 for the second.

VGVIGWGGLGVG and VHGWRPLLFHTR are within error of each other in protein stability index: 0.492 ± 0.00099 for the first, 0.519 ± 0.13 for the second.

VHTAIFTSWRRL and VIGLLSYFLVYL are the same in protein stability index: 0.491 ± 0.028 for the first, 0.491 ± 0.02 for the second.

Compared with VIRSIVSAYMIC, VISGFVLVFRVR is higher in protein stability index: 0.293 ± 0.051 for the first, 0.441 ± 0.028 for the second.

First: VKGYISLLLVLI
Second: VLAARVVLLRCR
The protein stability index of the first is higher: 0.345 ± 0.013 for the first, 0.2612 ± 0.0024 for the second.
